{
  "source": "patent US11866760B2",
  "about": "“Microorganisms for the production of insect pheromones and related compounds” (Provivi, Inc., priority 2017, dated 2024)",
  "molecules": {"B1": {"name": "A. transitella desaturase: Amyelois transitella Z11 desaturase (JX964774) (protein, listed as Amyelois transitella)", "chain": "MVPNKGSSDVLSEHSEPQFTKLIAPQAGPRKYKIVYRNLLTFGYWHLSAVYGLYLCFTCAKWATILFAFFLYVIAEIGITGGAHRLWAHRTYKAKLPLEILLLIMNSIAFQDTAFTWARDHRLHHKYSDTDADPHNATRGFFYSHVGWLLVKKHPEVKARGKYLSLDDLKNNPLLKFQKKYAILVIGTLCFLMPTFVPVYFWGEGISTAWNINLLRYVMNLNMTFLVNSAAHIFGNKPYDKSIASVQNISVSLATFGEGFHNYHHTYPWDYRAAELGNNRLNMTTAFIDFFAWIGWAYDLKSVPQEAIAKRCAKTGDGTDMWGRKR"}, "B2": {"name": "HaFAR (S60A) (protein)", "chain": "MVVLTSKETKPSVAEFYAGKSVFITGGTGFLGKVFIEKLLYSCPDIENIYMLIREKKGLAVSERIKQFLDDPLFTRLKDKRPADLEKIVLIPGDITAPDLGINSENEKMLIEKVSVIIHSAATVKFNEPLPTAWKINVEGTRMMLALSRRMKRIEVFIHISTAYTNTNREVVDEILYPAPADIDQVHQYVKDGISEEDTEKILNGRPNTYTFTKALTEHLVAENQAYVPTIIVRPSVVAAIKDEPLKGWLGNWFGATGLTVFTAKGLNRVIYGHSSYIVDLIPVDYVANLVIAAGAKSSKSTELKVYNCCSSSCNPVTIGTLMSMFADDAIKQKSYAMPLPGWYIFTKYKWLVLLLTFLFQVIPAYVTDLSRHLIGKSPRYIKLQSLVNQTRSSIDFFTNHSWVMKADRVRELYASLSPADKYLFPCDPTDINWTHYIQDYCWGVRHFLEKKSYE"}, "B3": {"name": "HaFAR (S453A) (protein)", "chain": "B2 chain with A60S, S453A"}, "B4": {"name": "HaFAR (S298A) (protein)", "chain": "B2 chain with A60S, S298A"}},
  "key": {"S. cerevisiae ΔOLE1": {"tested_on": "S. cerevisiae ΔOLE1", "test": "ΔOLE1 growth complementation assay without UFA", "type": "cell-based, Saccharomyces cerevisiae", "text": "S. cerevisiae ΔOLE1 (MATA OLE1::LEU2 ura3-52 his4) was used as an expression host. A synthetic expression cassette termed pOLE1 (FIG. 10, SEQ ID NO: 4) which comprises the OLE1 promoter region (SEQ ID NOs: 5 and 6), nucleotides encoding for 27 N-terminal amino acids of the OLE1 leader sequence (SEQ ID NO: 7), and a VPS13 terminator sequence (SEQ ID NO: 8) was created, and cloned into pESC-URA vector in between SacI and EcoRI sites. To test the functionality of the pOLE1 cassette, Dasher GFP synthon was inserted in between SpeI and NotI sites to create pOLE1-GFP plasmid. Competent ΔOLE1 was transformed with pOLE1-GFP, and plated on CM-Ura glucose agar plate (Teknova) containing UFA (20 mm CM-URA glucose agar plate was coated with 100 μL CM-Ura glucose medium containing 1% tergitol, and 3 μL palmitoleic acid). […] Validation of ΔOLE1 complementation was performed by restoring OLE1 activity. Specifically, native S. cerevisiae OLE1 synthon was inserted into pOLE1 cassette devoid of the leader sequence to create pOLE1-OLE1 plasmid. After transformation of ΔOLE1, and selection on CM-Ura glucose agar containing UFA, single colonies were patched onto YPD and CM-Ura glucose without UFA. After incubation at 30° C. for 5 days, growth was observed (FIG. 11A-FIG. 11E). As expected, Dasher GFP expression could not complement ΔOLE1 growth without UFA (FIG. 11A-FIG. 11E). DNA sequences which encode for desaturase variants were synthesized (to include nucleotide changes which remove restriction sites used for cloning purposes), and cloned into pOLE1 using SpeI-NotI sites (Genscript, SEQ ID NOs: 9-13). Complementation assay of ΔOLE1 with insect desaturases were performed in the same way as with OLE1 desaturase."}, "palmitic acid": {"tested_on": "palmitic acid", "test": "in vivo bioconversion assay of desaturases in C. tropicalis SPV053", "type": "cell-based, Candida tropicalis", "protocol": "Functional expression of the heterologous desaturases was characterized by a series of in vivo bioconversion experiments. C. tropicalis SPV053 derived stains expressing insect desaturases were cultured in rich (YPD) or defined (CM glucose) media supplemented with ethanol (for induction) and saturated acid substrates (palmitic acid, methyl palmitate, methyl myristate). Small scale (2 ml) cultures were cultivated for a total of 72 hours in 24 deep well plates with substrate added after the initial 24 hours.\nPositive isolates were re-patched onto YPD+300 μg/ml Zeocin and grown overnight and then stored at 4° C. Strains were inoculated from patch plates into 2 ml of YPD in 24 deep well plates (square well, pyramid bottom). Three positive clones were inoculated for each desaturase variant and the mCherry expressing control strain. Deep well plates were incubated at 30° C., 1000 rpm, and 80% humidity in the Infors HT Multitron Pro plate shaker for 24 hrs. After 24 hrs of incubation, cultures were split into equal 1 ml volumes to make two sets of identical plates. Both sets of plates were pelleted by centrifugation at 500×g. One set of plates was resuspended in 2 ml of YPD+0.3% (v/v) ethanol and the second set was resuspended in 2 ml of CM glucose+0.3% ethanol. Ethanol was added at this stage to induce recombinant enzyme expression from the ICL promoter. Cultures were incubated for another 24 hours under the same conditions before 300 mg/L palmitic acid was added to cultures from a 90 g/L stock solution in ethanol. The result was the addition of a fresh 0.3% ethanol in conjunction with the palmitic acid. A subset of strains was also cultured without palmitic acid addition. These cultures had 0.3% ethanol added instead. All cultures were incubated for an additional 24 hrs before a final addition of 0.3% ethanol. After another 24 hr period of incubation, 1.5 ml of each culture was harvested in 1.7 ml microcentrifuge tubes and pelleted. Supernatant was saved in fresh tubes and pellets were processed as described below. A subset of supernatant samples was also extracted to look for free acid in the extracellular medium.\nThe mCherry control and confirmed positive variants were rescreened using both palmitic acid and methyl palmitate as substrates. The culturing was conducted as described above with equimolar (1.17 mM) amounts of substrate added from ethanol stock solutions (methyl palmitate 94 g/L stock, 313 mg/L final concentration). The same protocol was also repeated with the full panel of strains using an 84 g/L stock of methyl myristate (C14:0). The final concentration of substrate was again 1.17 mM.\nThe in vivo bioconversion assay was scaled up for confirmation of (Z)-11-hexadecenoic acid synthesis. 2 ml YPD seed cultures of strains SPV0302, SPV0303, and SPV0304 (mCherry), […], SPV0305, and SPV0306 (A. transitella Z11 desaturase), and SPV0307, SPV0308, and SPV0309 (H. zea Z11 desaturase) were grown overnight at 30° C., 1000 rpm, 80% humidity in the Infors HT Multitron plate shaker. 200 μl of overnight culture from each of the three clonal isolates was pooled and inoculated into a single 125 ml baffled flask containing 20 ml YPD. The resulting three flasks were grown for 24 hrs at 30° C. and 250 rpm (Infors Flask shaker). Cultures were pelleted by centrifugation at 500×g and resuspended in 20 ml of YPD+0.3% (v/v) ethanol and returned to 125 ml baffled shake flasks. Cultures were incubated for an additional 24 hours before addition of 300 mg/L palmitic acid in a 90 g/L stock in ethanol (221 μl per flask). After 24 hours of incubation another 0.3% (v/v) ethanol (221 μl) was added to each flask for sustained induction. Flasks were incubated for an additional 24 hours before cells were harvested for FAME analysis and DMDS derivatization.\nTotal lipid composition as well as the (Z)-11-hexadecenoic acid quantification was based on modified procedures by Moss et al. (1982) and Yousuf et al (2010). […]"}, "methyl palmitate": {"tested_on": "methyl palmitate", "test": "HaFAR mutant library cultivation in 24 well plates in Y. lipolytica SPV603", "type": "cell-based, Yarrowia lipolytica", "conditions": "second FAR copy in SPV603, 24 well plates", "protocol": "Four individual clones of positive integrants were tested. Cultivation was performed in 24 well plates. Briefly, 2 mL YPD was inoculated from patches of individual clones and incubated for 24 h at 28° C., 1000 rpm. After 24 h OD600 was measured and the cells were centrifuged at 1000 rpm (Table 23). The cell pellets were resuspended in 1 mL S2 media and 10 g/L methyl palmitate was added. The cells were incubated for 18 h at 28° C., 1000 rpm. Cultivations were stored at −20° C. until analyzed. Extraction and analysis was performed according to previously established standard protocols using GC-FID.\nIn a first round four individual isolate from each transformation was tested. Cultivation was performed in 24 well plates. 2 mL YPD was inoculated from patches of individual clones and incubated for 24 h at 28° C., 1000 rpm. After 24 h OD600 was measured and the cells were centrifuged at 1000 rpm. The cell pellets were resuspended in 1 mL S2 media and 10 g/L methyl palmitate was added. The cells were incubated for 24 h at 28° C., 1000 rpm. Cultivations were stored at −20° C. until analyzed. Next, four clones of the best performing positive integrant were tested. Cultivation was performed in 24 well plates. 2 mL YPD was inoculated from patches of individual clones and incubated for ˜28 h at 28° C., 1000 rpm. After 28 h OD600 was measured and the cells were centrifuged at 1000 rpm. The cell pellets were resuspended in 1 mL S2 media and 10 g/L methyl palmitate was added. The cells were incubated for 18 h at 28° C., 1000 rpm. Cultivations were stored at −20° C. until analyzed.\nCell pellets were resuspended with 500 μL 5% NaOH (in methanol) then heated for 1 hour at 85° C. Samples were cooled down and then acidified by adding 400 μL 5N HCl. Next, 500 μL chloroform (containing 1 mM C17:0 heptadecanoate internal standard) were added to samples. Samples were mixed vigorously then spun down for 2 minutes at 13,000 RPM using a table top centrifuge. 450 μL chloroform were transferred to a new vial then evaporated at 85° C. for ˜15 minutes. Samples were then resuspended in 50 μL BSTFA (and were now ready for GC analysis). After analysis of the fatty alcohols samples were diluted ˜1:10 and rerun on the GC to improve peak separation of the fatty acid peaks.\nAll quantifications were based on the concentration of the internal standard. The concentration of the internal standard C17ME is 1 mM. The final concentration of fatty alcohols as well as fatty acids were calculated based on the effective carbon number compared to the internal standard."}, "[1]": {"conditions": "SPV053, supplementation not stated"}},
  "note": "Numbering of substitutions follows the chain as printed. Names and notes keep the numbering of the source.",
  "data": [
    {"molecule": "B1", "values": [
      {"measurement": "rescue of ΔOLE1 growth without UFA", "setting": "S. cerevisiae ΔOLE1; minimal medium (CM-Ura glucose) agar plate", "value": "conferred growth without UFA"},
      {"measurement": "rescue of ΔOLE1 growth without UFA", "setting": "S. cerevisiae ΔOLE1; rich medium (YPD) agar plate", "value": "conferred growth without UFA"},
      {"measurement": "(Z)-11-hexadecenoic acid titer", "setting": "palmitic acid; SPV053", "value": "approximately 5.62 mg/L"},
      {"measurement": "activity on myristoyl-CoA", "setting": "palmitic acid; SPV053, methyl myristate substrate", "value": "some activity on myristoyl-CoA"},
      {"measurement": "(Z)-9-hexadecenoic acid in C16-fatty acid composition", "setting": "palmitic acid; [1]", "value": 14.5, "unit": "%"},
      {"measurement": "(Z)-11-hexadecenoic acid in C16-fatty acid composition", "setting": "palmitic acid; [1]", "value": 30.0, "unit": "%"},
      {"measurement": "hexadecanoic acid in C16-fatty acid composition", "setting": "palmitic acid; [1]", "value": 55.5, "unit": "%"}
    ]},
    {"molecule": "B2", "values": [
      {"measurement": "Z11-16OH titers compared to the HaFAR double copy strain", "setting": "methyl palmitate", "value": "neutral or showed slight increases"}
    ]},
    {"molecule": "B3", "values": [
      {"measurement": "Z11-16OH titers compared to the HaFAR double copy strain", "setting": "methyl palmitate", "value": "neutral or showed slight increases"}
    ]},
    {"molecule": "B4", "values": [
      {"measurement": "Z11-16OH titers compared to the HaFAR double copy strain", "setting": "methyl palmitate", "value": "neutral or showed slight increases"}
    ]}
  ]
}
